According to the domain aggregation screens of Martell et al. (2025):

assay: soluble fraction after stress (log2 fold change); higher = more stays soluble; pooled small domains, quantitative proteomics; conditions: stress: pH 4
Outline: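 With high-throughput quantitative proteomics, pooled custom libraries of small protein domains were measured after pH 4 stress. Each domain's soluble amount after the stress gives a fold change taken as aggregation propensity. Higher log2 values mean more of the domain stayed soluble.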

| Sequence | soluble fraction (log2) |
| --- | --- |
| HMDKLEKRILDYLLQKSAIDGSTILKISHREMAMDLGTAREVVTRILKKLETGGFVRQGENYLEILK | -0.456 |
| HMVEFLMESTNGMYGIVKEGSSYYVQKGINESSLDYIGGMFMKDKNRFSSYSTALKRLELISGQET | -0.497 |
| HMSSIFTRIIAGEIPSYKVAEDENYYAFLDINPLTKGHTLVVPKMEVDYIFDLDDKTLAGMMLFAKKG | -0.455 |
| HMREFQVMKQELQEMVHQRLDMSTELSDEAIGDVIDEVIMEKSRNMYISSVTKLTLRQELFNAIR | -2.14 |
| HMVSLSNQVFEKIEYDILSGKYKIGEIISEKRLSSELGVSRTPIREALGRLSEEGLVGDSPSGTVVLGI | -0.287 |
| HMNEFAYLIKISPEHNNNRYYRMVAEGDNFRIEMGRIGASPVQMKRPMYLWNETYQKKLQEGYTDRTSYTS | -0.2 |
| HMTKIKAIFFDIDGTIRSFKTKTIPENTANTLKKLKEQGIKIFIATGRAPFHTTFLNDLLDFKFDGYITIN | -0.0405 |
| HMDSPVLTAEIKALIDKELEQNAVKLATGLKKQRKRATDIHDALIRQGHEVSYRTVVRYIRNKTAQTS | ≥ 0.43 |
| HMNLLQAHLLRLESAALLAEVREVDRQLSRWLHPLTPQSDVAIIDERNWEAAVARLTELGVHIEEGRW | -1.67 |
| HMKQLNKRQNDILSFAEKQGYVSVENLAKLFSVTQQTIRRDINYLSDNELLVRTHGGAYYSS | -0.0112 |
| HMEYSKSIKRLREDKNLTVEELAKRLSLDVEEIQKAEDGEDVDQKTLEAIARYFGVQYDSLVEGTAKSK | -0.258 |
| HMNKSEFLNELEKRIRVLEKNEIKDILAEYSQHIDMRMGSGLSEAEAIKDFGDMDDLAAEILEAY | -0.436 |
| HMEVGVSGTVFNTDSLNVRKGPGTNFDTVTSLKRGSVVEVFEQSAVDGTVWGRIANGWVNMQYVSL | -0.0681 |
| HMGQLVYPAGVYDVNKSYITDSNSAPYVLDKTDNNYYVLNTQMTWKGTEQDNKTPSQSYEESGGSVWLLFD | -0.59 |
| HMFGEDNLKSKEIKERVTEVAKHADDPVWIEARRKWKDENPDQNVKDYQQAYISGRIHELPWDVSYI | -0.0276 |
| HMIKITLPDGSVKEYKKGITPAEVAQSISEGLARNVISASYNGKTIETVTPLTTDGSLVLYTWDSPEGK | -0.168 |
| HMAEKRTAIITTARADIRQKPEATAPLAFEAVKDVVLELTDKPADGWVRVKHRDGSTGYIRINQI | -0.132 |
| HMYSRQRDLILKALRENVVHPTADFIYTVLKEKEPNLSLATVYRNLNLLANEGIIRKIEGLDGVAHFDH | 0.059 |
| HMKDITPASEDQLKAITDLMLKVNGEWSDAFFTFISKKFNHQISSPEQLTTFEANTIIDMLRKKAEG | 0.22 |
| HMTATDRQLQLIAYTAARLMAEQGIADFNAAKRKAIQTLGLPNNAKLPGNADVEAQLRAYQRIF | 0.0539 |
| HMSNWYGTVVKIQPRPNAQAADTAVVKLLDGSEHRFPVWADHLTTIEVGSRLKKLSGGWDPVLMDPEETF | -0.573 |
| HMAQFNELLFELRQDRKMTQEDLAKVLFVTSGTISNYENGVHLPDIEKLISLADFFGVTTDYLLG | -0.726 |
| HMTDTDVLSSRLSALSSGRTSAVRLRDGVLSLVLDVGGLSIEARKAMTTAIESTARATPGVEAVRIAET | 0.278 |
| HMGTTMLEVPNFVGEVFKEIDPEKYPNLRLVDSDYTYSNEYEAGKVISQDPVARTQVAEGSTVKLVIS | -0.249 |
| HMPSSAYGPYKNVFLSNSELTKLKNELPTSWEHYINRLSEYMRSTGRQYQSHAATILRWAATDRNS | 0.0263 |
| HMNENDPRVIKTRRLLLDSFVVLVRKKDFTSISVKDITDSAQVNRATFYAHFQDKYDILEYMVID | -0.198 |
| HMTIPRLPFAFAKRFGIVLDNRPSGFVAAHKEGLLPHVLLEVQRFLGDAYTLEVVSDDDFERILGQVYQT | -2.03 |
| HMEDQITNQQFTMTKQSILDLLVKKSYPPYELANELHLKKEEVLPIIRFLIAENEIHFKDGMLHLPH | -0.0688 |

| Sequence | soluble fraction (log2) |
| --- | --- |
| HMDRSVTAAELRLAAMDLLARREHGSQELEAKLSRRFHKRHYDVELLRSVIEQLTVEGLLSDERFAVS | -1.07 |
| HMDPDARQDAEVWLLDFLSAGPRTAQEIFTAARVEGHTRVTVKRAKATAGIQSVKQDFDGPWVWVLPGSG | -0.932 |
| HMTRVDALDQLAAIRFSSHIFAEDQDLRMVVVDGQRIGEGDIVRDEIRLEQITETGVIFEYQGERFPIDV | -2.21 |
| HMVVLPPTEDAPEWAQVFDRLGRPESADGYKLPVPEGADPAFAKLASAKMHELGLSAKQGAALAAWWNEQA | -0.332 |
| HMNSNTIIFSQFLSEVDNGRVTQVQIQGNNIKGTLSNGKDFITYAPNDPNLIEKLTSKGVSISASPID | 0.217 |
| HMVANLPFNYKVYAKKGKLYVVISYKDSNGKYKKKWIRTGLDEGTKKKEVNTVADQIAAEYYSSMRLE | 0.0398 |
| HMPEVAHTIDMEAVNKHWDELPEREQRILVMRFYGNLTQTEIGERLGISQMHVSRLLARALSHLKSRLLD | -0.046 |
| HMVDSLTIGRRIRQLRTERGMTLEELAAAVGRAPSQLSMIENGRREPKLTLLQAIARALGSTLDALLE | -0.404 |
| HMTANPSTEEIMARVEAIPLPIKRLPPGQIVQAQTVAATVLRSNPGLDLAKAWKLAYATVTGQE | -0.00256 |
| HMNIEIIEVQEESTPSEISKIISTESTKIIEDLLNLGVMASLETPLKNQDIEKLLEGYGYIVDIKP | -1.84 |
| HMRSFGTVAQARGRWKAFYVGPDKRRHTPGVTFSNPIRAQGWLAQELTLIELGQWTPPAQRREKAEVAS | -0.43 |
| HMDPFAYEVKVTDLAAGSSEIRTVYTEQGSFNIPSGMSGNLKIQVRSASMYDEVEPSDWYTIGEEDIN | -0.461 |
| HMLAAGTSLTVDTESSNLNIRQEPSTEGVILGKAAKGEVVTLVEQSSDEWWKIKTKDGEEGYAYARYLR | 0.0235 |
| HMDARSTHIAAIHVLKSKLQLQDSDYRALLLTLTGQTSSKDLSEHQRRAVRNHMQQLAERMGVVQ | 0.0263 |
| HMSDRFLDQEGVALSTLRPSGTVVLDSGEHLDVVTRGEFIEQGERVKVIKAESTWYVVEQIN | -0.317 |
| HMSMSLQFLSRRIRLQREKRGLKQHDIAHALQISPQAVSKWERGENAPDIALLRPLAGLLGVSIDWLMGGD | -1.7 |
| HMHTNNALWAIADDMRARKDDGEFDTYREGYKWAANNIVKEGIHITAIKLEKAYHKAKSEGKV | 0.301 |
| HMDIDLGAVEEQAVKGSGPGGQKMNKTSSGVLLRYRLGEELVLVKWTRERQHSLNRFLALRELVDEIEAR | -0.099 |
| HMSEQLKQIAERIKELRNIAGLGEEELAAKLDIPVDTYREYESGNVDIPVSFLYKISGMFNVELTAIL | -1.05 |
| HMNIAEIGQKVAQQRVALGISQERLAKLSDLSRSTIHHLEHGTLHEIGAAKLFKLLSLLDIQLK | 0.159 |
| HMKVGEIIKAKREELKIPLVNFAKELDISQGYLSQIENGIKTNPNLDIILKIIHRLDIDLAMLL | -1.02 |
| HMNEVETWSVQADGATGRIDKWLAEQNEWSRSQVQEWLKAGRVEVDGRVVKPNYKLSGTESIAVHIPEAV | -0.0787 |
| HMNEIYHQIKVDNVSDDDISLFQYSGIEFDHADYRRGEYIEFAISNRDLSILNNLGYEYQVVHH | -1.07 |
| HMIAIGDDARLDDAARFFRIAEDSYAAGDYRKSKENYIEARKLYAELGDHEKVNLINSKISAIDSIT | -0.0121 |
| HMVLSVRDRMVQILDQVKTGEYKRIEDFFSADEGRTGFVVSFVAILELVKGGLLTITQSKNLAPIYVRLPN | -0.108 |
| HMPATPDATVQAVQQRLNELGYDVGSADGLMGRGTRSAIIAFQQDRGLAATGVADQALLLQLQP | -0.0545 |
| HMKLPIEKESYRIIWDLEEESFRIRLKISENSPQEEKNILINQAIEDIENITGEPIDKSPYYVLYE | -1.04 |
